# According to patent publication US20230212182A1 (DUALITY BIOLOGICS SUZHOU, published 2023):
# T1: Trop2 (UniProt P09758 27-323, limits assumed)
# T1 sequence (looked up): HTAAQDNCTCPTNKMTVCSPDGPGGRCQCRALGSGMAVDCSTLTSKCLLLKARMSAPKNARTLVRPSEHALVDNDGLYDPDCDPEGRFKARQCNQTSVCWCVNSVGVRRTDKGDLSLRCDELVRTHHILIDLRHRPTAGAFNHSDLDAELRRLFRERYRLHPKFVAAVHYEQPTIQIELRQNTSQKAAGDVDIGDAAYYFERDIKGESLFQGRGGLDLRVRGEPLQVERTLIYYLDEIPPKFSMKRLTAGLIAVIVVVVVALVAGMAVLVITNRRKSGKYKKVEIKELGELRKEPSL
# B1: Reference ADC-2 (Sacituzumab-Deruxtecan) (antibody, human IgG1, kappa, V domains shown)
# VH: QVQLQQSGSELKKPGASVKVSCKASGYTFTNYGMNWVKQAPGQGLKWMGWINTYTGEPTYTDDFKGRFAFSLDTSVSTAYLQISSLKADDTAVYFCARGGFGSSYWYFDVWGQGSLVTVSS
# VL: DIQLTQSPSSLSASVGDRVSITCKASQDVSIAVAWYQQKPGKAPKLLIYSASYRYTGVPDRFSGSGSGTDFTLTISSLQPEDFAVYYCQQHYITPLTFGAGTKVEIKR
# modifications: Deruxtecan linker-drug conjugated after TCEP reduction of disulfide bonds (cysteine positions not stated); mean n=4.18 per antibody
# B2: ADC-II-11-a (antibody, human IgG1, kappa, V domains shown)
# VH: B1 VH
# VL: B1 VL
# modifications: linker-drug L-II-3 conjugated after TCEP reduction of disulfide bonds (cysteine positions not stated); mean n=3.73 per antibody
# B3: ADC-III-28 (antibody, human IgG1, kappa, V domains shown)
# VH: B1 VH
# VL: B1 VL
# modifications: linker-drug L-III-30 conjugated after TCEP reduction of disulfide bonds (cysteine positions not stated); mean n=3.67 per antibody
# Biological target: T1, Trop2
# Assay: cell-based or functional assay
Binder,"IC50 (nM), inhibition of in vitro proliferation of Colo205 cells (CTG, 6 days) [nM]","IC50 (nM), inhibition of in vitro proliferation of SK-OV-3 cells (CTG, 6 days) [nM]"
B1,152,501
B2,121,448
B3,77.6,394
